B1: K1028R: dominant negative human PASK, conserved lysine in ATP-binding region mutated to arginine (protein, UniProt Q96RG2 1-1323, looked up, variant K1028R)
PAS domain-containing …: MEDGGLTAFEEDQRCLSQSLPLPVSAEGPAAQTTAEPSRSFSSAHRHLSRRNGLSRLCQSRTALSEDRWSSYCLSSLAAQNICTSKLHCPAAPEHTDPSEPRGSVSCCSLLRGLSSGWSSPLLPAPVCNPNKAIFTVDAKTTEILVANDKACGLLGYSSQDLIGQKLTQFFLRSDSDVVEALSEEHMEADGHAAVVFGTVVDIISRSGEKIPVSVWMKRMRQERRLCCVVVLEPVERVSTWVAFQSDGTVTSCDSLFAHLHGYVSGEDVAGQHITDLIPSVQLPPSGQHIPKNLKIQRSVGRARDGTTFPLSLKLKSQPSSEEATTGEAAPVSGYRASVWVFCTISGLITLLPDGTIHGINHSFALTLFGYGKTELLGKNITFLIPGFYSYMDLAYNSSLQLPDLASCLDVGNESGCGERTLDPWQGQDPAEGGQDPRINVVLAGGHVVPRDEIRKLMESQDIFTGTQTELIAGGQLLSCLSPQPAPGVDNVPEGSLPVHGEQALPKDQQITALGREEPVAIESPGQDLLGESRSEPVDVKPFASCEDSEAPVPAEDGGSDAGMCGLCQKAQLERMGVSGPSGSDLWAGAAVAKPQAKGQLAGGSLLMHCPCYGSEWGLWWRSQDLAPSPSGMAGLSFGTPTLDEPWLGVENDREELQTCLIKEQLSQLSLAGALDVPHAELVPTECQAVTAPVSSCDLGGRDLCGGCTGSSSACYALATDLPGGLEAVEAQEVDVNSFSWNLKELFFSDQTDQTSSNCSCATSELRETPSSLAVGSDPDVGSLQEQGSCVLDDRELLLLTGTCVDLGQGRRFRESCVGHDPTEPLEVCLVSSEHYAASDRESPGHVPSTLDAGPEDTCPSAEEPRLNVQVTSTPVIVMRGAAGLQREIQEGAYSGSCYHRDGLRLSIQFEVRRVELQGPTPLFCCWLVKDLLHSQRDSAARTRLFLASLPGSTHSTAAELTGPSLVEVLRARPWFEEPPKAVELEGLAACEGEYSQKYSTMSPLGSGAFGFVWTAVDKEKNKEVVVRFIKKEKVLEDCWIEDPKLGKVTLEIAILSRVEHANIIKVLDIFENQGFFQLVMEKHGSGLDLFAFIDRHPRLDEPLASYIFRQLVSAVGYLRLKDIIHRDIKDENIVIAEDFTIKLIDFGSAAYLERGKLFYTFCGTIEYCAPEVLMGNPYRGPELEMWSLGVTLYTLVFEENPFCELEETVEAAIHPPYLVSKELMSLVSGLLQPVPERRTTLEKLVTDPWVTQPVNLADYTWEEVFRVNKPESGVLSAASLEMGNRSLSDVAQAQELCGGPVPGEAPNGQGCLHPGDPRLLTS
B2: S1273,77,80A: PASK mutant, serine residues 1273, 1277 and 1280 changed to alanine (protein)
chain: MEDGGLTAFEEDQRCLSQSLPLPVSAEGPAAQTTAEPSRSFSSAHRHLSRRNGLSRLCQSRTALSEDRWSSYCLSSLAAQNICTSKLHCPAAPEHTDPSEPRGSVSCCSLLRGLSSGWSSPLLPAPVCNPNKAIFTVDAKTTEILVANDKACGLLGYSSQDLIGQKLTQFFLRSDSDVVEALSEEHMEADGHAAVVFGTVVDIISRSGEKIPVSVWMKRMRQERRLCCVVVLEPVERVSTWVAFQSDGTVTSCDSLFAHLHGYVSGEDVAGQHITDLIPSVQLPPSGQHIPKNLKIQRSVGRARDGTTFPLSLKLKSQPSSEEATTGEAAPVSGYRASVWVFCTISGLITLLPDGTIHGINHSFALTLFGYGKTELLGKNITFLIPGFYSYMDLAYNSSLQLPDLASCLDVGNESGCGERTLDPWQGQDPAEGGQDPRINVVLAGGHVVPRDEIRKLMESQDIFTGTQTELIAGGQLLSCLSPQPAPGVDNVPEGSLPVHGEQALPKDQQITALGREEPVAIESPGQDLLGESRSEPVDVKPFASCEDSEAPVPAEDGGSDAGMCGLCQKAQLERMGVSGPSGSDLWAGAAVAKPQAKGQLAGGSLLMHCPCYGSEWGLWWRSQDLAPSPSGMAGLSFGTPTLDEPWLGVENDREELQTCLIKEQLSQLSLAGALDVPHAELVPTECQAVTAPVSSCDLGGRDLCGGCTGSSSACYALATDLPGGLEAVEAQEVDVNSFSWNLKELFFSDQTDQTSSNCSCATSELRETPSSLAVGSDPDVGSLQEQGSCVLDDRELLLLTGTCVDLGQGRRFRESCVGHDPTEPLEVCLVSSEHYAASDRESPGHVPSTLDAGPEDTCPSAEEPRLNVQVTSTPVIVMRGAAGLQREIQEGAYSGSCHHRDGLRLSIQFEVRRVELQGPTPLFCCWLVKDLLHSQRDSAARTRLFLASLPGSTHSTAAELTGPSLVEVLRARPWFEEPPKAVELEGLAACEGEYSQKYSTMSPLGSGAFGFVWTAVDKEKNKEVVVKFIKKEKVLEDCWIEDPKLGKVTLEIAILSRVEHANIIKVLDIFENQGFFQLVMEKHGSGLDLFAFIDRHPRLDEPLASYIFRQLVSAVGYLRLKDIIHRDIKDENIVIAEDFTIKLIDFGSAAYLERGKLFYTFCGTIEYCAPEVLMGNPYRGPELEMWSLGVTLYTLVFEENPFCELEETVEAAIHPPYLVSKELMSLVSGLLQPVPERRTTLEKLVTDPWVTQPVNLADYTWEEVCRVNKPEAGVLAAAALEMGNRSLSDVAQAQELCGGPVPGEAPNGQGCLHPGDPRLLTS
modifications: left off: small tags and cut ends
notes: PASK mutant, serine residues 1273, 1277 and 1280 changed to alanine
B3: T1165A: PASK mutant, threonine residue 1165 changed to alanine (protein, UniProt Q96RG2 1-1323, looked up, variant T1165A)
PAS domain-containing …: MEDGGLTAFEEDQRCLSQSLPLPVSAEGPAAQTTAEPSRSFSSAHRHLSRRNGLSRLCQSRTALSEDRWSSYCLSSLAAQNICTSKLHCPAAPEHTDPSEPRGSVSCCSLLRGLSSGWSSPLLPAPVCNPNKAIFTVDAKTTEILVANDKACGLLGYSSQDLIGQKLTQFFLRSDSDVVEALSEEHMEADGHAAVVFGTVVDIISRSGEKIPVSVWMKRMRQERRLCCVVVLEPVERVSTWVAFQSDGTVTSCDSLFAHLHGYVSGEDVAGQHITDLIPSVQLPPSGQHIPKNLKIQRSVGRARDGTTFPLSLKLKSQPSSEEATTGEAAPVSGYRASVWVFCTISGLITLLPDGTIHGINHSFALTLFGYGKTELLGKNITFLIPGFYSYMDLAYNSSLQLPDLASCLDVGNESGCGERTLDPWQGQDPAEGGQDPRINVVLAGGHVVPRDEIRKLMESQDIFTGTQTELIAGGQLLSCLSPQPAPGVDNVPEGSLPVHGEQALPKDQQITALGREEPVAIESPGQDLLGESRSEPVDVKPFASCEDSEAPVPAEDGGSDAGMCGLCQKAQLERMGVSGPSGSDLWAGAAVAKPQAKGQLAGGSLLMHCPCYGSEWGLWWRSQDLAPSPSGMAGLSFGTPTLDEPWLGVENDREELQTCLIKEQLSQLSLAGALDVPHAELVPTECQAVTAPVSSCDLGGRDLCGGCTGSSSACYALATDLPGGLEAVEAQEVDVNSFSWNLKELFFSDQTDQTSSNCSCATSELRETPSSLAVGSDPDVGSLQEQGSCVLDDRELLLLTGTCVDLGQGRRFRESCVGHDPTEPLEVCLVSSEHYAASDRESPGHVPSTLDAGPEDTCPSAEEPRLNVQVTSTPVIVMRGAAGLQREIQEGAYSGSCYHRDGLRLSIQFEVRRVELQGPTPLFCCWLVKDLLHSQRDSAARTRLFLASLPGSTHSTAAELTGPSLVEVLRARPWFEEPPKAVELEGLAACEGEYSQKYSTMSPLGSGAFGFVWTAVDKEKNKEVVVKFIKKEKVLEDCWIEDPKLGKVTLEIAILSRVEHANIIKVLDIFENQGFFQLVMEKHGSGLDLFAFIDRHPRLDEPLASYIFRQLVSAVGYLRLKDIIHRDIKDENIVIAEDFTIKLIDFGSAAYLERGKLFYTFCGAIEYCAPEVLMGNPYRGPELEMWSLGVTLYTLVFEENPFCELEETVEAAIHPPYLVSKELMSLVSGLLQPVPERRTTLEKLVTDPWVTQPVNLADYTWEEVFRVNKPESGVLSAASLEMGNRSLSDVAQAQELCGGPVPGEAPNGQGCLHPGDPRLLTS

Test system: AMARA peptide
Test: PASK kinase assay, 32P incorporation into AMARA peptide substrate
Type: biochemical, human
Conditions: for Catalytic activity: baculovirus-expressed enzyme variant
Experimental: Biochemical properties of the Pask enzyme. A recombinant baculovirus was engineered to overexpress human PASK enzyme in cultured insect cells. The enzyme was expressed as a fusion with a His6 tag at its amino terminus such that the recombinant polypeptide could be purified by Ni-affinity chromatography. Routine enzyme preparations were harvested from 0.8 liter of cultured Sf-9 cells. Cells were lysed by dounce homogenization in 50 mM Tris-HCl, pH 8.0, 100 mM NaCl, 0.04% β-mercaptoethanol (“lysis buffer”) and spun at 100,000×G for one hour to remove insoluble debris. Soluble material (˜50 ml) was then applied to a 3 ml bed volume of Ni-affinity resin. Following application and 50× column volume wash, bound material was eluted with storage buffer (50 mM HEPES, pH 7.4, 100 mM NaCl, 1 mM DTT, 1 mM EDTA) supplemented with 250 mM imidazole. Eluted material was sequentially subjected to Mono-Q, anion-exchange chromatography, and eluted with increasing NaCl concentration. Fractions were evaluated by SDS-PAGE to identify PASK enriched fractions, pooled and dialyzed against storage buffer supplemented with 10% glycerol. Typical enzyme preparations yield 0.5 mg of intact PASK enzyme judged to be greater than 95% pure by visual inspection of Coomassie-stained SDS-PAGE gels.
Kinetic data were used to characterize the activities of PASK enzyme samples derived without modification from baculovirus and following pre-phosphorylation in the presence of ATP. Enzyme activity was monitored using a synthetic substrate bearing the sequence NH2-[…]-CO2H (AMARA peptide, SEQ ID NO:9). The serine residue in this peptide is known to be phosphorylated by both AMPK and Snf1 [2], both of which are exceedingly similar in primary amino acid sequence to the catalytic domain of PASK. The three arginine residues located at the carboxyl terminus of the AMARA peptide allow avid binding to phosphocellulose paper, thereby facilitating quantitation of ^32P incorporation catalyzed by PASK from [γ-^32P]ATP. […] Moreover, lambda phosphatase treatment generated an enzyme which had 7-fold lower activity than the unmodified enzyme, and this treatment was fully reversible by allowing the enzyme to autophosphorylate in the presence of ATP.
PASK concentrations (0.5–2 μg/ml) were determined to have linear rates with respect to protein concentration and time. Kinetic constants were determined using peptide substrate concentrations between 0.06–1 mM. The data were fit to a non-linear Michaelis-Menten equation using the GraphPad Prism 2.0 program. Vmax values given are μmol/min/mg. NS indicates an SE less than 0.05.

Molecule | Catalytic activity | Vmax (Pre-phosphorylated enzyme, peptide substrate) [µmol/min/mg] | Km (Pre-phosphorylated enzyme, peptide substrate 0.06–1 mM) [µM]
B1 | completely inactive | – | –
B2 | – | 0.4 | 300
B3 | Catalytically inactive | – | –
